Data set [1] deals with T1, αβ^Cys105 mutant sGC (Homo sapiens, UniProt Q02108+Q02153, H105C).
T1 construct: made in house; host or cells: Sf9 cells (baculovirus)
T1 sequence (Q02153 1-619 H105C): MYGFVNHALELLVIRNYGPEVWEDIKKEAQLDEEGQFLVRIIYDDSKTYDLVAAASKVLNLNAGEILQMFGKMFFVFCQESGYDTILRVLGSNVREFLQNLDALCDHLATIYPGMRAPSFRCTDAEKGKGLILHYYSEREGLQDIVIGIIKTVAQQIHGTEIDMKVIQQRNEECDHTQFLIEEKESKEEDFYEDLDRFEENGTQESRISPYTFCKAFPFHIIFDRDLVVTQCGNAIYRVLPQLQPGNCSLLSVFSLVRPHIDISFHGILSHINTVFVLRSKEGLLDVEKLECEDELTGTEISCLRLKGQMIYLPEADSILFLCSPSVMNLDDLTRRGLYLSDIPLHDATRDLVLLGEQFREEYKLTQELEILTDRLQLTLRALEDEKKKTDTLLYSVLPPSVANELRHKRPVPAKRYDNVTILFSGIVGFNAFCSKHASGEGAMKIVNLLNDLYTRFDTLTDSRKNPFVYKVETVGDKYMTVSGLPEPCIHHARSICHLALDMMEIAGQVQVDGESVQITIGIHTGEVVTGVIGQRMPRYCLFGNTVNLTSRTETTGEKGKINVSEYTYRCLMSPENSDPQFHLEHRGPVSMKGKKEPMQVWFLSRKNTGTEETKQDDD
T1 sequence (Q02108 1-690): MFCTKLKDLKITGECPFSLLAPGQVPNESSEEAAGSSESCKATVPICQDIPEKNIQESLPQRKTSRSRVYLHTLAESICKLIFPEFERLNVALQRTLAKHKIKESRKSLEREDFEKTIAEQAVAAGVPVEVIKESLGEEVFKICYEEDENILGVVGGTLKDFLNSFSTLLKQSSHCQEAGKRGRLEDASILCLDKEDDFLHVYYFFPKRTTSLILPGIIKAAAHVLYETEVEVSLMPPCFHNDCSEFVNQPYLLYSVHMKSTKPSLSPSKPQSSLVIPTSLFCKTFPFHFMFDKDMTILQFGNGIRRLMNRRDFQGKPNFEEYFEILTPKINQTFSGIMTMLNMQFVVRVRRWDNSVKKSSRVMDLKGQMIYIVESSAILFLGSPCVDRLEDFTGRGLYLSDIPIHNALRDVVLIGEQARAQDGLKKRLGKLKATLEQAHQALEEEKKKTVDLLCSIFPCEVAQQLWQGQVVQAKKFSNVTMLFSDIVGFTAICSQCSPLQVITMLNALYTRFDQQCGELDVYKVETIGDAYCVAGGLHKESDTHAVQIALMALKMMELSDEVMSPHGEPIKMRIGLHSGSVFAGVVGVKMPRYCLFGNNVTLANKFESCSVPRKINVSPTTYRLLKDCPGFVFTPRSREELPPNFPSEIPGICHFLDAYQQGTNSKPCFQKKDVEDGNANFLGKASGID
The experiment in a line: Heme reconstitution of DTT-treated αβ^Cys105 enzyme followed by UV-Vis spectroscopy. Type of data set: binding. The following applies: data not shown. How it is done:
UV-Vis Spectroscopy. All absorbance measurements were recorded with a dual-beam Cecil 9500 spectrophotometer at 25° C. […] Hemin stock solution (5 mM) was prepared in DMSO and was reduced by dilution in 25 mM TEA, pH 7.5 containing 5 mM DTT to a working solution of 500 μM. The reduced heme was kept under argon in a gas-tight vial during the reconstitution.
The enzyme reconstituted with 10 μM hemin was subjected to gel filtration (after GF) or treated for 15 min with 50 μM NOC-7 (with NO) and the spectra recorded, as shown in FIG. 5D.

The target of data set [2] is T1, αβ^Cys105 mutant sGC. The experiment in a line: Assay of sGC activity ([32P]cGMP formation from GTP), purified αβ^Cys105 mutant enzyme. The following applies: for sensitivity to SNP after addition of hemin: absence of DTT; for PPIX activation, fold: 1 μM PPIX. Type of data set: biochemical. How it is done:
(§1) sGC Expression and Purification. […] Purification of sGC was performed as described earlier (26), the disclosure of which is hereby incorporated herein by reference, with the following modifications. Cells were harvested 72 h post infection, resuspended in loading buffer (25 mM triethanolamine, pH 7.5. 10 glycerol, 4 mM MgCl2 and 1 mM phenylmethylsulfonyl fluoride, and 5 μg/ml each of pepstatin A, leupeptin, aprotinin, and chymostatin,) and lysed by sonication. The lysate was subjected to 100,000×g centrifugation for 1 h. The high-speed supernate was loaded on a 60 ml DEAE-Sepharose (Amersham Pharmacia Biotech) column and washed with 60 ml of loading buffer without protease inhibitors. The proteins were eluted with loading buffer containing 250 mM NaCl and the eluate was directly loaded on a 30 ml His-Bind resin (Novagen) column. The column was washed with 60 ml of loading buffer followed by 60 ml of loading buffer with 45 mM imidazole. The enzyme was eluted with 175 mM imidazole and 2 ml fractions were collected. […] The enzyme at this stage was approximately 90–95% pure. To remove imidazole, sGC-containing fractions were diluted 3 fold with 25 mM triethanolamine pH 7.5, loaded on a 2 ml Hi-Trap DEAE-Sepharose column (Amersham Pharmacia Biotech), washed with 10 ml of loading buffer and eluted with 25 mM triethanolamine pH 7.5, 250 mM NaCl, 10 glycerol, 4 mM MgCl2, 0.5 mM EDTA, 0.5 mM EGTA. The enzyme obtained at this stage (95% or greater purity) was used for experiments.
(§2) Assay of sGC Activity. Enzyme activity was assayed by formation of [^32P] cGMP from α[^32P]GTP at 37° C. in a final volume of 100 μl. Incubation medium contained 50 mM triethanolamine-HCl buffer (pH 7.4), 1 mM 3-isobutyl-1-methylxanthine (IBMX), 1 mg/ml BSA. 1 mM cGMP, 3 mM MgCl2, 0.05 mg/ml creatine phosphokinase, 5 mM creatine phosphate, 0.1 mM EGTA. 200 μM GTP (about 10.000 cpm/pmol). The reaction was started by addition of the substrate (GTP) with or without activators. 1 mM DTT, GSH or cysteine were added to the incubation medium before the addition of GTP. Thiol concentration varied in some experiments as indicated. Samples containing 0.2 μg sGC were incubated for 10 or 15 min and the reaction was stopped by addition of 500 μl 150 mM zinc acetate and 500 μl 180 mM sodium carbonate. The pellet of zinc carbonate containing most of the unreacted GTP was removed by centrifugation and the supernatant fractions were loaded onto columns filled with 1 g of neutral alumina. Columns were then eluted with 10 ml 0.1 M Tris-HCl buffer (pH 7.5) and Cherenkov radiation in flow through plus eluate was counted in a LKB liquid scintillation spectrometer. Samples incubated in the absence of sGC were used as a negative control. The concentration of dimethylsulfoxide (DMSO) used as a vehicle for YC-1 was not higher than 0.1 and had no effect on sGC activity as determined previously.

Data set [3] concerns the target T2, wild type sGC (Homo sapiens, UniProt Q02108+Q02153).
T2 construct: made in house; host or cells: Sf9 cells (baculovirus)
T2 sequence (Q02153 1-619): T1 sequence (Q02153 1-619 H105C) with C105H
T2 sequence (Q02108 1-690): T1 sequence (Q02108 1-690)
The following applies: cited from earlier work.

Data set [4] deals with T3, Sf9 cells expressing wild type sGC (Homo sapiens, UniProt Q02108+Q02153).
T3 construct: expressed in transfected cells; host or cells: Sf9 cells infected with baculoviruses
T3 sequence (Q02153 1-619): T1 sequence (Q02153 1-619 H105C) with C105H
T3 sequence (Q02108 1-690): T1 sequence (Q02108 1-690)
Briefly: cGMP accumulation in intact Sf9 cells expressing wild type sGC. The class given is cell-based. As to conditions: basal, 0.5 mM IBMX. As to the method: (§3) Assay of cGMP Accumulation in Intact Cells. […] The reaction was terminated by addition of 50 μl of 1 M perchloric acid and cGMP was extracted on ice for 1 h. The extract was centrifuged, neutralized with 2M K2CO3 and used for cGMP determination by radioimmunoassay (9, 27). The pellet was dissolved in 0.1 M NaOH and used for protein assay by the method of Lowry (28).
(§4) Accumulated cGMP was extracted and quantified as described in Materials and Methods. Values are shown as means±s.d. The differences in intracellular accumulation of cGMP in Sf9 cells expressing the wild type enzyme or the mutant form are discussed below.

In data set [5] the target is T2, wild type sGC. The experiment in a line: Assay of sGC activity ([32P]cGMP formation from GTP), purified wild type enzyme. The class given is biochemical. How it is done: as §1, §2
Data set [6] addresses T4, Sf9 cells expressing αβ^Cys105 sGC (Homo sapiens, UniProt Q02108+Q02153, H105C).
T4 construct: expressed in transfected cells; host or cells: Sf9 cells infected with baculoviruses
T4 sequence (Q02153 1-619 H105C): T1 sequence (Q02153 1-619 H105C)
T4 sequence (Q02108 1-690): T1 sequence (Q02108 1-690)
The experiment in a line: cGMP accumulation in intact Sf9 cells expressing αβ^Cys105 sGC. The class given is cell-based. As to the method:
as §3, §4

By Km is commonly meant the concentration of substrate that gives half-maximal velocity.

Numbering of substitutions follows the chain as printed. Where “and” joins values, the source holds several entries; their conditions need not be identical. Equal values may be shown once. Read-outs that look alike come from different tables or passages of the source.

Regarding Hemin [reference compound], the “molar excess of reduced hemin at which binding is saturated” value in data set [1] is 13 fold molar excess. Besides, the “sensitivity to SNP after addition of hemin” value in data set [2] (1 μM hemin) is on record as “did not confer any sensitivity to SNP”; in data set [2] (10 μM hemin, data not shown), “did not have any significant effect”. The “NO-activation upon addition of hemin” value in data set [2] (presence of 1 mM DTT) was “partially restored its NO-activation”.

For “Wild Type: recombinant wild type human soluble guanylyl cyclase expressed in Sf9 cells”, the Km is 65 to 448 µM in data set [3] (Basal, read-out: GTP-Km); 11 to 134 µM in data set [3] (NO, read-out: GTP-Km); 65 to 450 µM in data set [3] (literature (12, 30–32), read-out: range of GTP-Km measured for the recombinant sGC). In addition, the “specific activity after exposure to NO” value in data set [3] (recombinant wild type human sGC, previous studies) was around 1.5 µmol/min/mg. Also, in data set [4], the “rate of cGMP accumulation” value is 0.9 nmol/mg/5 min. The “PPIX activation, fold” value in data set [5] (+DTT) is 14 fold; in data set [5] (No DTT), 6 fold. The Specific activity was determined as 1.45 ± 0.1 µmol/min/mg in data set [5] (+NO (SNP), with DTT (1 mM)); 1.4 µmol/min/mg in data set [5] (+NO (SNP), with DTT (1 mM), listed as wild type); 1.41 ± 0.2 µmol/min/mg in data set [5] (+NO, without DTT); 0.02 ± 0.01 µmol/min/mg in data set [5] (Basal, with DTT (1 mM)); 0.02 µmol/min/mg in data set [5] (Basal, with DTT (1 mM), listed as Wild type); 0.02 µmol/min/mg in data set [5] (Basal, with DTT (1 mM), listed as wild type). Further, the Specific activity worked out at 0.05 ± 0.02 µmol/min/mg in data set [5] (Basal, without DTT) and 0.05 µmol/min/mg in data set [5] (Basal, without DTT, listed as Wild type). For the same substance, in data set [5] (with DTT), the “fold activation by NO” value is reported as “(72.5) fold”.

Take “αβ^Cys105: heme-deficient, constitutively active human soluble guanylyl cyclase mutant; β subunit carries His105→Cys substitution”: the “basal cGMP accumulation relative to NO-activated cells overexpressing wild type enzyme” value in data set [6] was “about ten times higher”. Further, in data set [6] (basal, 0.5 mM IBMX), the “basal level of cGMP accumulation” value worked out at 33 nmol/mg/5 min. Besides, the Km is 153 ± 11 µM in data set [2] (+DTT); ~150 µM and 150 µM in data set [2] (No DTT). In addition, the “PPIX activation, fold” value is listed as 5.4 fold in data set [2] (+DTT) and 1.8 fold in data set [2] (No DTT). Besides, the Specific activity was 0.44 ± 0.08 µmol/min/mg in data set [2] (+NO, with DTT, after heme reconstitution); 1.2 ± 0.2 µmol/min/mg in data set [2] (+NO, without DTT, after heme reconstitution); 0.12 ± 0.01 µmol/min/mg in data set [2] (Basal, with DTT (1 mM)); 1.2 ± 0.3 µmol/min/mg in data set [2] (Basal, without DTT); 0.0012 ± 0.0003 µmol/min/mg in data set [2] (absence of thiols, n=4 independent purifications); 1e-06 ± 1e-07 µmol/min/mg in data set [2] (sample without any thiols (FIG. 1B, defined as 100)).

Values taken from patent US7214519B2, “Screening method for identifying heme independent modulators of soluble guanylyl cyclase (sGC) activity using αβCys105 mutant sGC” (Board of Regents of the University of Texas System, priority 2003, dated 2007).
